# Results taken from article PMC8082267, “Inhibition of the PP2A activity by the histone chaperone ANP32B is long-range allosterically regulated by respiratory cytochrome c” (Redox Biology, 2021).
# Legend:
# Conditions in all cases: both partners purified
# [1] = molecular target: T1, full-length ANP32B (ANP32B_(1-251)), recombinant (human, UniProt Q92688-1 1-251); assay: ITC; low ionic strength: 400 μM reduced Cc injected into ANP32B construct in the cell (50 μM ANP32B_(1-251), 40 μM ANP32B_(1-231), 50 μM ANP32B_(1-161)), 10 mM sodium phosphate pH 7.4; models with one or two independent binding sites
# T1 construct: cloned by PCR from cDNA (Geneservice, UK) into pET28a(+); source: E. coli BL21 (DE3) pLysS, purified (Ni-NTA, Superdex 200)
# T1 sequence (Q92688 whole entry): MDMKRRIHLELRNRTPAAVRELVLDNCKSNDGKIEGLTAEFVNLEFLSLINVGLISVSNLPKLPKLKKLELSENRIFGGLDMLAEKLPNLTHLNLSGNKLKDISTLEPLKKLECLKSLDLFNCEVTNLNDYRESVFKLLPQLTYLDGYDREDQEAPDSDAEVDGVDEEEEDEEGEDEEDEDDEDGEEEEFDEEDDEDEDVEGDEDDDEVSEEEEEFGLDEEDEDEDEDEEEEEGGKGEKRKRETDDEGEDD
# [2] = molecular target: T2, ANP32B construct lacking its Nuclear Localization Signal sequence (ANP32B_(1-231)) (human, UniProt Q92688-1 1-231); assay: as above
# T2 construct: lacks the 20-amino acid C-end stretch; source: E. coli BL21 (DE3) pLysS, purified (Ni-NTA, Superdex 200)
# T2 sequence (Q92688 1-231): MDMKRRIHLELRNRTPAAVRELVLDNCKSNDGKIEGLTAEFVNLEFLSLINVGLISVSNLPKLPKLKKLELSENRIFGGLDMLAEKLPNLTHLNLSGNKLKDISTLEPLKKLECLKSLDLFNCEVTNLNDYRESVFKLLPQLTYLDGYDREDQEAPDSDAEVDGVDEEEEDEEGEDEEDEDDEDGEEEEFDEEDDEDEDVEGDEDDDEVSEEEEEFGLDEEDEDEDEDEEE
# [3] = molecular target: T1, full-length ANP32B (ANP32B_(1-251)), …; assay: ITC; high ionic strength: reduced Cc injected into ANP32B_(1-251), 10 mM sodium phosphate pH 7.4 with 150 mM NaCl
# [4] = molecular target: T3, full-length ANP32B (ANP32B1-251) (human, UniProt Q92688-1 1-251); assay: ITC; reduced Cc (400 uM stock) injected into ANP32B1-251 (50 uM) in the cell; 10 mM sodium phosphate pH 7.4 with 150 mM NaCl; single binding site
# T3 construct: also called Acidic leucine-rich Nuclear Phosphoprotein 32 family member B; source: E. coli BL21 (DE3) pLysS, pET28a(+), purified (Ni-NTA, Superdex 200)
# T3 sequence (Q92688 whole entry): as the sequence (Q92688 whole entry) above
# cytochrome c, sequence (P99999 2-105): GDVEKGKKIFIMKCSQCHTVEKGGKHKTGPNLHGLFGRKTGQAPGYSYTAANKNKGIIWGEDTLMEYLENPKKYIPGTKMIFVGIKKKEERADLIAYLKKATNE
"dH, higher-affinity site (two independent sites) [1] [kcal/mol]","dH, lower-affinity site (two independent sites) [1] [kcal/mol]",Kd [2] [µM],dH [2] [kcal/mol],stoichiometry N [2],stoichiometry N [3],Kd [4] [µM],stoichiometry N [4],Binder
-10.7,29.5,8,-3.6,1.09,1,,,"recombinant respiratory cytochrome c (natural protein, heme group (hemeprotein), reduced with sodium ascorbate; 15N-labelled in the HSQC titrations, cytochrome c, human; also called Cc; the hemeprotein) not shown"
,,,,,,9.1,1.2,"cytochrome c (natural protein, heme group; kept in the reduced redox state; 15N-labelled in the NMR titrations, cytochrome c, human (the anti-human Cc serum was raised against this recombinant Cc); NMR assignment BMRB 5406 and structure PDB 1J3S are used for it; also called Cc; respiratory cytochrome c; source: E. coli BL21 (DE3), pBTR1 vector also encoding yeast heme lyase, purified (carboxymethyl cellulose ion exchange)) not shown"
